Read-outs that look alike come from different tables or passages of the source.
PML (PML-IV): K65R (FLAG-PML-IV-GFP, CHO-K1)
other (SUMOylation at K65): decreases

PML (PML-IV): K65R in FLAG-PML-IV (aa 49-633)
other (SUMOylation at K65): decreases

PML (PML-IV): K160R (FLAG-PML-IV-GFP, CHO-K1)
other (SUMOylation at K160): decreases
